Target: human PD-1 and human TIGIT co-expressed on Jurkat cells (Jurkat/PD-1/TIGIT cells) (human)
Experiment: flow cytometry, Jurkat/PD-1/TIGIT cells

human PD-1 and human TIGIT co-expressed on Jurkat cells (Jurkat/PD-1/TIGIT cells) (human), sequence (chain, as listed by the source, chain 1 of 2): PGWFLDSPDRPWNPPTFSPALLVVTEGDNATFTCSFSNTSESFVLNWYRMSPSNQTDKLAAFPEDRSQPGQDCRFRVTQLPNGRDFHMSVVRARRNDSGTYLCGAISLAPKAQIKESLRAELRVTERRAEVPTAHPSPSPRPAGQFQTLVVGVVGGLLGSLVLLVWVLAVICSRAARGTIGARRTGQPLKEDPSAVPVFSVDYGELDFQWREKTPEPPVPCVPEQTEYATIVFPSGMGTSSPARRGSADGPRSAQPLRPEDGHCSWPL
human PD-1 and human TIGIT co-expressed on Jurkat cells (Jurkat/PD-1/TIGIT cells) (human), sequence (chain, as listed by the source, chain 2 of 2): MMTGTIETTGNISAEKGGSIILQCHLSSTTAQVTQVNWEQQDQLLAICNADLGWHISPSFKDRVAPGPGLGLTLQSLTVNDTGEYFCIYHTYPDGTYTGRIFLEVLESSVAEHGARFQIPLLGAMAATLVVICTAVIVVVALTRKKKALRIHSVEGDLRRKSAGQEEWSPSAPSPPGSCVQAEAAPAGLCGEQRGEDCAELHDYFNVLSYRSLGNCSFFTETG

MFI at 6.25 nM: 4890 MFI
B1: variant CD155 IgV-Fc P18S/S65W/S67A/L104Q/G111R (Fc fusion)
chain: WPPPGTGDVVVQAPTQVSGFLGDSVTLPCYLQVPNMEVTHVSQLTWARHGESGSMAVFHQTQGPWYAESKRLEFVAARLGAELRNASLRMFGLRVEDEGNYTCQFVTFPQRSRSVDIWLRVLAAAEPKSSDKTHTCPPCPAPELLGGPSVFLFPPKPKDTLMISRTPEVTCVVVDVSHEDPEVKFNWYVDGVEVHNAKTKPCEEQYGSTYRCVSVLTVLHQDWLNGKEYKCKVSNKALPAPIEKTISKAKGQPREPQVYTLPPSREEMTKNQVSLTCLVKGFYPSDIAVEWESNGQPENNYKTTPPVLDSDGSFFLYSKLTVDKSRWQQGNVFSCSVMHEALHNHYTQKSLSLSPGK

Reference: US20210130437A1
